Here are results for 4 molecules from patent US7960140B2, “Avidin mutants” (Orion Diagnostica Oy, priority 2003, dated 2011).

Usually ΔTm stands for the shift of the melting midpoint relative to a reference. Broadly, the Kd is a measure of binding affinity in units of concentration.

Read-outs that look alike come from different tables or passages of the source.

A short description of data set [1]: Heat-induced unfolding by DSC. The class given is physicochemical. As to conditions: for ΔTm: change in Tm upon addition of a three-fold molar excess of biotin; for DSC Tm (+)biotin: three-fold molar excess of biotin; for DSC Tm (−)biotin: without biotin. (DSC measures the heat that a sample takes up or gives off during a temperature scan.)
Data set [2] can be described thus: Dissociation assay with fluorescent biotin conjugate (ArcDia BF560). The conditions noted are these: for Release 1 h / t1/4 (time point of 25% release) / kdiss: 23 ± 1° C.; for Release 1 h: 100-fold molar excess of free biotin; for t1/4 (time point of 25% release): determined directly from the measured data; for kdiss: one-phase dissociation model. The class given is binding. The protocol: The biotin-binding properties of produced mutagenised dcAvds were analysed by method based on the quenching of biotin-coupled fluorescent probe ArcDia BF560 (ArcDia Ltd., Turku, Finland) due to binding to avidin (FIG. 4). PerkinElmer LS55 luminometer was used for measurements. […] The spectra of 50 nM biotin-Bf560 solution in 50 mM Na-phosphate containing 650 mM NaCl was measured (red). Chicken avidin (Belovo S. A., Bastogne, Belgium) was added to final subunit concentration of 83 nM and green spectra was obtained.
Briefly, 50 nM free biotin-Bf560 solution in 50 mM Na-phosphate containing 650 mM NaCl was measured using excitation at 560 nm (2.5 nm slit) and emission was collected at 578 nm (5 nm slit). Continuous stirring (setting low) was used throughout the analysis. After 100 sec measurement, the protein under study was added to final biotin-binding subunit concentration 50 nM and the measurement was continued for 500 sec. […]
A one-phase dissociation model was used to analyse the data, as described elsewhere (Hytönen et al., (2004) Biochem J, in press). The dissociation rate constant (kdiss) was determined by fitting the equation −kdisst=ln(B/Bo) to the data. Bo is the measured maximum binding (100%) determined as the difference between the fluorescence of the free dye and the fluorescence of the protein-dye complex, and B is the amount of complex measured as a function of time. The first 500 seconds were omitted from the data to abolish the effect of the fast initial phase characteristic of avidin-BF560-biotin interaction (FIG. 9). The fraction of fluorescent biotin released after one-hour was determined, as well as the times of half-maximal (t½) and quarter-maximal (t¼) release. For dual chain avidins with modified binding sites, it was hypothesized that 50% of the binding sites would behave like those of wt avidin (cpAvd5S4 binding site of dcAvd was not modified). The dissociation data measured for wt avidin divided by two was subtracted from the data measured for the modified dual chain avidins and the dissociation curve was fitted to the difference as above.

A short description of data set [3]: SDS-PAGE-based thermal stability assay. Type of data set: physicochemical. As to conditions: for SDS-PAGE stability assay Tr (+)biotin / SDS-PAGE stability assay Tr (−)biotin: Table 5; for SDS-PAGE stability assay Tr (+)biotin: with biotin; for SDS-PAGE stability assay Tr (−)biotin: transition midpoint of oligomeric disassembly, without biotin; for Tr / Tr + btn: Table 2; for Tr: absence of biotin, half of tetramer/pseudo-tetramer broken into monomers; for Tr + btn: presence of biotin. The protocol:
Thermal stability of the mutants was studied by using a SDS-PAGE-based method essentially as described in detail by Bayer et al. (Bayer, E. A. et al. Electrophoresis 17, 1319-1324 (1996)). Briefly, the protein sample in the absence or presence of biotin was diluted to a final concentration of 0.2 mg/mil in 50 mM Na-carbonate buffer, and the proteins were acetylated by adding acetyl NHS ester. Equal amount of SDS-PAGE sample buffer was added to each sample and the protein was incubated at different temperatures (between 25-100° C.) for 20 minutes. After that the samples were subjected to SDS-PAGE analysis and the gel was finally stained with Coomassie brilliant blue. Dissociation of the proteins into their subunits was observed from the gels and the transition temperatures, wherein half of the protein was (pseudo-)tetrameric and half monomeric were determined.

A short description of data set [4]: IAsys optical biosensor binding to immobilised 2-iminobiotin. The conditions noted are these: for kass / kdiss: 2-iminobiotin surface, 50 mM borate pH 9.5, 1 M NaCl, 20° C.; for Kd: 2-iminobiotin. Here is the method:
Reversibility of biotin binding and affinity towards 2-iminobiotin were determined with an IAsys optical biosensor (Affinity Sensors, Cambridge, UK) (Table 1.) as described in detail by Marttila et. al. (Marttila, A. T. et al. FEBS Lett 441, 313-7 (1998)). Briefly, The 2-iminobiotin ligand was immobilized onto the carboxymethyldextran surface of a cuvette using N-hydroxysuccinimide activation. Binding of various concentrations of avidin or avidin mutants onto 2-iminobiotinylated surface was measured in a 50 mM borate buffer (pH 9.5) containing 1 M NaCl at 20° C. The 2-iminobiotin cuvettes were regenerated with 20 mM HCl. The kinetic rate constants for association (kass) and dissociation (kdiss) were calculated using the Fast Fit program package (Affinity Sensors). The obtained rate constants were used to calculate Kd(rel) according to Kd=kdiss/kass. Equilibrium data obtained from measurements with different protein concentrations were used to calculate the dissociation constant Kd(eq).

Data set [5] in a line: Microplate temperature stability assay. As to conditions: for activity after 32 min treatment: 80° C. The class given is physicochemical. Here is the method:
FIG. 13. Temperature sensitivity determined by microplate assay. The avidin, dcAvd and scAvd sample is treated with the indicated temperature for certain time and the ability to bind biotinylated alkaline phosphatase was determined by coating the microplate with the sample.
The stability of the protein was studied by microplate assay as described in the article by Nordlund et al., (2003) J Biol Chem 278, 2479-83. In this assay, 50 mM Na—PO4 buffer containing 100 mM NaCl was used and the protein was heated to 80° C. or 90° C. for certain time. After that, the capacity to bind fluorescent biotin was measured as described in the article by Nordlund et al., (2003) J Biol Chem 278, 2479-83.

A short description of data set [6]: Reversibility of biotin binding on biotinylated IAsys cuvette surface. The conditions noted are these: reversibility from biotin surface; biotin 423 μg/ml, one hour. Here is the method:
The reversibility of biotin binding was also measured using IAsys apparatus. In the reversibility assay, the sample proteins were allowed to bind to the biotinylated cuvette surface in PBS containing 1 M NaCl. After the equilibrium was reached, the cuvette was filled with PBS, 1 M NaCl containing biotin (423 μg/ml) and the dissociation of the proteins was monitored for one hour.

The nature of data set [7]: Free biotin-binding sites by quenching of intrinsic fluorescence on biotin titration. The conditions noted are these: for Fluorescence quenching (350 nm): intrinsic fluorescence, emission 350 nm, due to binding of biotin; for Number of free biotin-binding sites per quaternary unit: protein 500±15 nM, titrated with biotin. The protocol:
The number of free binding sites was determined based on the quenching of the intrinsic fluorescence of avidin due to binding of biotin (Laitinen et al., (2003) J. Biol. Chem. 278, 4010-4014). The protein sample under study diluted to 2 ml volume in 50 mM NaPO4 pH 7.0+650 mM NaCl was titrated with 1 μl additions of 70 μM biotin solution in the same buffer. The protein concentration in this assay was 500±15 nM, and the concentration was determined by comparing the emission intensity averaged over 340-350 nm (excitation at 280 nm) to avidin standard sample. The protein sample was continuously mixed by magnetic stirrer.
Intensity from each biotin concentration was averaged over eight second measurement. The end-point of the quenching was determined by fitting a line to obtained data and determining the total quenching by averaging the last three measured intensities (FIG. 12, Table 6).

The nature of data set [8]: Colorimetric HABA-assay for number of free biotin-binding sites. The conditions noted are these: average from two independent experiments. Here is the method:
The colorimetric HABA-assay was performed essentially as described by Green (Green, N. Methods in Enzymology 18, 418-424 (1970)). Dual-chain avidin (dcAvd) in 100 mM phosphate buffer (pH 7) was saturated with excess HABA and the absorbance was measured at 500 nm with a Beckman DU640 spectrophotometer. After that, excess biotin, which replaces HABA from the binding site, was added to the sample and the absorbance at 500 nm was measured again. The observed change in the absorbance was used to calculate the number of free binding sites in dcAvd.
The number of biotin-binding sites per dual-chain avidin pseudo-tetramer (is actually a dimer with four binding sites) was determined in a colorimetric HABA-assay according to Green (Green, N. Methods in Enzymology 18, 418-424 (1970)). The average from two independent experiments gave an approximation of 3.3 free biotin-binding sites per dimeric molecule (pseudo-tetramer).

Setting [9] is: calculated from the rate constants (kdiss/kass), read-out: Kd(rel).
The mark [10] stands for this setting: determined experimentally from the binding curves, read-out: Kd(eq).

As for “Avd(Y33H): avidin with four identically mutagenised (Y33H) subunits (Marttila et al. 2003) [reference compound]”, in data set [1], the thermal shift (ΔTm) was found to be 33.3 °C, the “DSC Tm (+)biotin” value was 106.3 °C and the “DSC Tm (−)biotin” value amounted to 73.0 °C. The “dissociation of biotin-coupled fluorescent probe with excess unlabeled biotin” value in data set [2] (5 μM free biotin, 3600 sec, 23±0.5° C.) is “rapid and complete dissociation”. Besides, in data set [2], the “Release 1 h” value is given as 99.2%, the “t1/4 (time point of 25% release)” value was found to be 149 s and the kdiss was found to be 0.0011 s⁻¹. Moreover, the “SDS-PAGE stability assay Tr (+)biotin” value in data set [3] turned out to be 75 °C.

With “Avd(S16A): avidin mutant S16A in all four subunits”, in data set [1], the ΔTm was 30.3 °C, the “DSC Tm (+)biotin” value is 114.6 ± 0.2 °C and the “DSC Tm (−)biotin” value is 84.3 ± 0.3 °C. Besides, in data set [2], the “Release 1 h” value is recorded as 74.5%, the “t1/4 (time point of 25% release)” value came out at 621 s and the kdiss came to 0.00036 s⁻¹. Also, in data set [3], the “SDS-PAGE stability assay Tr (−)biotin” value amounted to 55 °C and the “SDS-PAGE stability assay Tr (+)biotin” value was found to be 80 °C.

With “Avidin: wild-type chicken avidin, homotetramer (SEQ ID NO:1) [reference compound]”, in data set [1], the ΔTm was 33.5 °C, the “DSC Tm (+)biotin” value is 117.0 ± 0.7 °C and the “DSC Tm (−)biotin” value is 83.5 ± 0.1 °C. Moreover, in data set [2], the “Release 1 h” value was found to be 14.1% and the kdiss was 2.3e-05 s⁻¹. Moreover, in data set [2] (25° C.), the “Dissociation of fluorescent biotin Release 1 h” value was determined as 14.1% and the “Dissociation of fluorescent biotin kdiss” value is 2.3e-05 s⁻¹. In data set [2] (50° C.), the “Dissociation of fluorescent biotin Release 1 h” value worked out at 71.5% and the “Dissociation of fluorescent biotin kdiss” value came out at 0.00024 s⁻¹. In data set [4], the kass result is “(5.5 ± 0.5) × 10^5 M^−1s^−1” and the kdiss entry is “(1.9 ± 1.4) × 10^−3 s^−1”. In data set [4] (setting [9]), the Kd was 34 nM. Moreover, the Kd in data set [4] (setting [10]) came to 22 nM. In data set [3], the Tr is 60 °C, the “Tr + btn” value worked out at 95 °C, the “SDS-PAGE stability assay Tr (−)biotin” value came to 60 °C and the “SDS-PAGE stability assay Tr (+)biotin” value was found to be 95 °C. Further, the “activity after 32 min treatment” value in data set [5] (32 min) is 82%. For the same molecule, in data set [5] (90° C., 32 min), the “activity present after 32 min treatment” value was “over 50%”. In data set [5] (100° C.), the “heat inactivation” value was “significantly slower response to the heat treatment”. Also, the reversibility in data set [6] came out at 9%. In data set [7], the “quenching measured for whole emission spectrum (290-500 nm) due to biotin binding” value amounted to 44.9%, the “Fluorescence quenching (350 nm)” value stood at 47.7% and the “Number of free biotin-binding sites per quaternary unit” value was 3.34. In addition, the “Number of free biotin-binding sites per quaternary unit” value in data set [7] (listed as avidin) turned out to be 3.3.

B1: dcAvd: dual-chain avidin, fusion of cpAvd5→4 and cpAvd6→5 via SGG spacer (SEQ ID NO:2) (protein, listed as Gallus gallus)
chain: MVHATSPLLLLLLLSLALVAPGLSARKRTQPTFGFTVNWKFSESTTVFTGQCFIDRNGKEVLKTMWLLRSSVNDIGDDWKATRVGINIFTRLRTQKEGGSGGSARKCSLTGKWTNDLGSNMTIGAVNSRGEFTGTYITAVTATSNEIKESPLHGTQNTINKSGGSTTVFTGQCFIDRNGKEVLKTMWLLRSSVNDIGDDWKATRVGINIFTRLRTQKEGGSGGSARKCSLTGKWTNDLGSNMTIGAVNSRGEFTGTYITAVTATSNEIKESPLHGTQNTINKRTQPTFGFTVNWKFSE
For B1, in data set [1], the ΔTm turned out to be 35.7 °C, the “DSC Tm (+)biotin” value stood at 115.9 °C and the “DSC Tm (−)biotin” value was found to be 80.2 ± 0.0 °C. Moreover, in data set [2], the “Release 1 h” value amounted to 10.1% and the kdiss was 1.4e-05 s⁻¹. In data set [2] (25° C.), the “Dissociation of fluorescent biotin Release 1 h” value was determined as 10.1% and the “Dissociation of fluorescent biotin kdiss” value came to 1.5e-05 s⁻¹. Further, in data set [2] (50° C.), the “Dissociation of fluorescent biotin Release 1 h” value came to 67.4% and the “Dissociation of fluorescent biotin kdiss” value amounted to 0.00027 s⁻¹. The “free biotin-binding sites per dimeric molecule (pseudo-tetramer)” value in data set [8] is roughly 3.3. For the same molecule, in data set [4], the kass result is on record as “(9.8 ± 1.3) × 10^4 M^−1s^−1” and the kdiss entry was “(1.1 ± 0.5) × 10^−3 s^−1”. The Kd in data set [4] (setting [9]) is 110 nM. Further, the Kd in data set [4] (setting [10]) was determined as 41 nM. Further, in data set [3], the Tr was determined as 40 °C, the “Tr + btn” value was 75 °C, the “SDS-PAGE stability assay Tr (−)biotin” value turned out to be 40 °C and the “SDS-PAGE stability assay Tr (+)biotin” value came out at 75 °C. The “activity after 32 min treatment” value in data set [5] (32 min) was 59%. The “heat inactivation” value in data set [5] (90° C.) is recorded as “fast denaturation”. For the same molecule, the “heat inactivation” value in data set [5] (100° C.) was “fast inactivation”. This molecule gave a reversibility in data set [6] of 8%. Besides, in data set [7], the “quenching measured for whole emission spectrum (290-500 nm) due to biotin binding” value is reported as 45.1%, the “Fluorescence quenching (350 nm)” value was 51.4% and the “Number of free biotin-binding sites per quaternary unit” value was 3.86.
